# Source: patent US20210246166A1 (Bayer, published 2021)
# Numbered stars: 1 amine (or outer) side, 2 acyl side, 3 side chain; on linkers, the order of the positions; unused ones are H or OH. Bridge positions count the residues as written; N and C are the ends. Square brackets hold non-standard residues; d marks the D form. Ends that are not written are not given here. 4‑Aminomethylphenylacetic acid = O=C(Cc1ccc(CN[*:1])cc1)[*:2]; NHCH2(1,3-C6H4)CH2CO = O=C(Cc1cccc(CN[*:1])c1)[*:2]; Phe(3-COOH) = N[C@@H](Cc1cccc(C(=O)O)c1)C(=O)O; Oic = O=C(O)[C@@H]1C[C@@H]2CCCC[C@@H]2N1; PEG6 = NCCOCCOCCOCCOCCOCCOCCC(=O)O; tBuAla = CC(C)(C)C[C@H](N)C(=O)O; Pen = CC(C)(S)[C@H](N)C(=O)O; PEG3 = NCCOCCOCCOCCC(=O)O; Dap = NC[C@H](N)C(=O)O; dβPro = D-beta-Proline; Sar = CNCC(=O)O
# T1: recombinant rat MASP1 active protease (amino acids 302-704, C-terminal His Tag) (rat, UniProt Q8CHN8 302-704)
# T1 sequence: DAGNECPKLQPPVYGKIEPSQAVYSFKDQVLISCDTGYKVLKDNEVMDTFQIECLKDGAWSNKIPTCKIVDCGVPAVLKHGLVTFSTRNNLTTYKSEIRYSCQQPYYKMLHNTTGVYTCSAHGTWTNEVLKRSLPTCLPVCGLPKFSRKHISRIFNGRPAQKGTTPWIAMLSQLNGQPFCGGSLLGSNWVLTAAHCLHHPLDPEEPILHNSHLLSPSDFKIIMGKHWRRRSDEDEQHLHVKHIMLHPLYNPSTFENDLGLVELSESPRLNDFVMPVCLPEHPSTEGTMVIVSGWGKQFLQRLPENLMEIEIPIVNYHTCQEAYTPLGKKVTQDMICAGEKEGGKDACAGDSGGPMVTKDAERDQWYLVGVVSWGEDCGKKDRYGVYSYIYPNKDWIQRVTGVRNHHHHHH
# B1: Example 476: ((N-Me)G)-IC+SRSLP-(Oic)-I-(Pen)+IP-(4-Aminomethylphenylacetic acid)-OH (peptide)
# peptide: [Sar]ICSRSLP[Oic]I[Pen]IP[4‑Aminomethylphenylacetic acid]-OH
# modifications: disulfide 3-11; N-terminus assumed
# SMILES: CC[C@H](C)[C@H](NC(=O)CNC)C(=O)N[C@H]1CSSC(C)(C)[C@@H](C(=O)N[C@H](C(=O)N2CCC[C@H]2C(=O)NCc2ccc(CC(=O)O)cc2)[C@@H](C)CC)NC(=O)[C@H]([C@@H](C)CC)NC(=O)[C@@H]2C[C@@H]3CCCC[C@@H]3N2C(=O)[C@@H]2CCCN2C(=O)[C@H](CC(C)C)NC(=O)[C@H](CO)NC(=O)[C@H](CCCNC(=N)N)NC(=O)[C@H](CO)NC1=O
# B2: Example 477: ((N-Me)G)-IC+SRSLP-(Oic)-I-(Pen)+IP-(3-Aminomethylphenylacetic acid)-OH (peptide)
# peptide: [Sar]ICSRSLP[Oic]I[Pen]IP[NHCH2(1,3-C6H4)CH2CO]-OH
# modifications: disulfide 3-11; N-terminus assumed
# SMILES: CC[C@H](C)[C@H](NC(=O)CNC)C(=O)N[C@H]1CSSC(C)(C)[C@@H](C(=O)N[C@H](C(=O)N2CCC[C@H]2C(=O)NCc2cccc(CC(=O)O)c2)[C@@H](C)CC)NC(=O)[C@H]([C@@H](C)CC)NC(=O)[C@@H]2C[C@@H]3CCCC[C@@H]3N2C(=O)[C@@H]2CCCN2C(=O)[C@H](CC(C)C)NC(=O)[C@H](CO)NC(=O)[C@H](CCCNC(=N)N)NC(=O)[C@H](CO)NC1=O
# B3: Example 472: ((N-Me)G)-IC+SRSLP-(Oic)-I-(Pen)+IP-(PEG5(22 atoms))-OH (peptide)
# peptide: [Sar]ICSRSLP[Oic]I[Pen]IP[PEG6]-OH
# modifications: disulfide 3-11; N-terminus assumed
# SMILES: CC[C@H](C)[C@H](NC(=O)CNC)C(=O)N[C@H]1CSSC(C)(C)[C@@H](C(=O)N[C@H](C(=O)N2CCC[C@H]2C(=O)NCCOCCOCCOCCOCCOCCOCCC(=O)O)[C@@H](C)CC)NC(=O)[C@H]([C@@H](C)CC)NC(=O)[C@@H]2C[C@@H]3CCCC[C@@H]3N2C(=O)[C@@H]2CCCN2C(=O)[C@H](CC(C)C)NC(=O)[C@H](CO)NC(=O)[C@H](CCCNC(=N)N)NC(=O)[C@H](CO)NC1=O
# B4: Example 483: ((N-Me)G)-IC+SRSLP-(Oic)-I-(Pen)+IP-((3-Carboxy)F)-OH (peptide)
# peptide: [Sar]ICSRSLP[Oic]I[Pen]IP[Phe(3-COOH)]-OH
# modifications: disulfide 3-11; N-terminus assumed
# SMILES: CC[C@H](C)[C@H](NC(=O)CNC)C(=O)N[C@H]1CSSC(C)(C)[C@@H](C(=O)N[C@H](C(=O)N2CCC[C@H]2C(=O)N[C@@H](Cc2cccc(C(=O)O)c2)C(=O)O)[C@@H](C)CC)NC(=O)[C@H]([C@@H](C)CC)NC(=O)[C@@H]2C[C@@H]3CCCC[C@@H]3N2C(=O)[C@@H]2CCCN2C(=O)[C@H](CC(C)C)NC(=O)[C@H](CO)NC(=O)[C@H](CCCNC(=N)N)NC(=O)[C@H](CO)NC1=O
# B5: Example 480: (beta-P)-IC+SRS-((tBu)A)-PPI-(Pen)+IPD-OH (peptide)
# peptide: XICSRS[tBuAla]PPI[Pen]IPD-OH
# modifications: disulfide 3-11; not fully specified (residue 1); printed as (beta-P)-IC + SRS-((tBu)A)-PPI-(Pen) + IPD-OH
# B6: Example 484: ((N-Me)G)-IC+SRSLP-(Oic)-I-(Pen)+IPD-(PEG2(13 atoms))-OH (peptide)
# peptide: [Sar]ICSRSLP[Oic]I[Pen]IPD[PEG3]-OH
# modifications: disulfide 3-11; N-terminus assumed
# SMILES: CC[C@H](C)[C@H](NC(=O)CNC)C(=O)N[C@H]1CSSC(C)(C)[C@@H](C(=O)N[C@H](C(=O)N2CCC[C@H]2C(=O)N[C@@H](CC(=O)O)C(=O)NCCOCCOCCOCCC(=O)O)[C@@H](C)CC)NC(=O)[C@H]([C@@H](C)CC)NC(=O)[C@@H]2C[C@@H]3CCCC[C@@H]3N2C(=O)[C@@H]2CCCN2C(=O)[C@H](CC(C)C)NC(=O)[C@H](CO)NC(=O)[C@H](CCCNC(=N)N)NC(=O)[C@H](CO)NC1=O
# Molecular target: recombinant rat MASP2 active protease (amino acids 296-685, C-terminal His Tag) (rat, UniProt Q9JJS8 296-685)
# Sequence (Q9JJS8 other isoform, or with tags, fused parts or gaps limits assumed): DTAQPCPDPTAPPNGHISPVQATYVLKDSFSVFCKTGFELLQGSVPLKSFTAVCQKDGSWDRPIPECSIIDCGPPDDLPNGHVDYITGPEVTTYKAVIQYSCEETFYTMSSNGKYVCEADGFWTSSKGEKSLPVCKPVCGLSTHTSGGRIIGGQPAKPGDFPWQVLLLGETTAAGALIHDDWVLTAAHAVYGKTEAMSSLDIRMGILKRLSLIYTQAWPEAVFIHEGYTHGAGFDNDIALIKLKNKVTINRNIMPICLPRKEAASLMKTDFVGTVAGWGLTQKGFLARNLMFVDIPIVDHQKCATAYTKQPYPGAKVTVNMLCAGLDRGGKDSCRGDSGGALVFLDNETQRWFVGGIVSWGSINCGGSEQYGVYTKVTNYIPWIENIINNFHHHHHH
# Assay: cell-based or functional assay
row,rat MASP2 IC50,Binder
1,70 nM,[Sar]ICSRSLP[Oic]I[Pen]IP[Dap]-OH (disulfide 3-11; also: Dap at position 14 joined through its 3-amino group) [Example 467: ((N-Me)G)-IC+SRSLP-(Oic)-I-(Pen)+IP-(*Dap)-OH]
2,61 nM,B1
3,123 nM,B2
4,49 nM,B3
5,50 nM,B4
6,36 nM,[dβPro]ICSRS[tBuAla]PPI[Pen]IPD-OH (disulfide 3-11) [Example 481: (beta-p)-IC+SRS-((tBu)A)-PPI-(Pen)+IPD-OH]
7,41 nM,B5
8,88 nM,B6
9,25 nM,[Piperidin‑4‑ylacetic acid]ICSRS[tBuAla]PPICIPD-OH (disulfide 3-11) [Example 475: (Piperidin-4-ylacetic acid)-IC+SRS-((tBu)A)-PPIC+IPD-OH]

# Molecular target: T1, recombinant rat MASP1 active protease …
# Assay: cell-based or functional assay
row,rat MASP1 IC50,Binder
1,170 nM,[Sar]ICSRSLP[Oic]I[Pen]IP[Dap]-OH (disulfide 3-11; also: Dap at position 14 joined through its 3-amino group) [Example 467: ((N-Me)G)-IC+SRSLP-(Oic)-I-(Pen)+IP-(*Dap)-OH]
2,53 nM,B1
3,154 nM,B2
4,100 nM,B3
5,34 nM,B4
6,20 nM,[dβPro]ICSRS[tBuAla]PPI[Pen]IPD-OH (disulfide 3-11) [Example 481: (beta-p)-IC+SRS-((tBu)A)-PPI-(Pen)+IPD-OH]
7,24 nM,B5
8,63 nM,B6
9,250 nM,[Piperidin‑4‑ylacetic acid]ICSRS[tBuAla]PPICIPD-OH (disulfide 3-11) [Example 475: (Piperidin-4-ylacetic acid)-IC+SRS-((tBu)A)-PPIC+IPD-OH]
